The term Km denotes the substrate concentration at which the rate is half of its maximum. Broadly, the stoichiometry N is the number of molecules, sites or subunits per partner or assembly.

Assay [1] deals with T1, TevENO (T. evansi enolase).
T1 construct: gene ENO; recombinant, codon-optimised gene in pET21b, E. coli BL21(DE3); N-terminal His6 tag and TEV cleavage site, tag cleavage not described
The experiment in a line: PYK/LDH coupled assay, NADH absorbance at […] nm, Michaelis-Menten fit. The conditions noted are these: 0.1 M triethanolamine/HCl, pH 7.6, 25 °C, 2 mM MgSO4, 17 mM KCl, 1.1 mM ADP, 0.42 mM NADH; 2-PGA 0 to 1 mM. Format: biochemical, Trypanosoma evansi.

The target of assay [2] is recombinant Trypanosoma evansi enolase (TevENO), His-tagged (Trypanosoma evansi). Briefly: SEC; analytical SEC, ENrich SEC 650 10 x 300 column, buffer A (50 mM sodium phosphate, 5 mM MgCl2, pH 7.0); 500 μg TevENO, 168.9 μg Nb11, or mixtures at TevENO:Nb11 monomer ratios 2:1, 2:2, 2:3, 2:4 incubated 1 h; peaks analysed by SDS-PAGE. For orientation: In gel filtration, larger molecules generally elute earlier.

Assay [3] addresses T2, recombinant Trypanosoma evansi enolase (TevENO), His-tagged (Trypanosoma evansi).
T2 construct: monomer MM = 48.41 kDa as printed; also called T. evansi enolase; recombinant TevENO; source: E. coli BL21 (DE3), purified (IMAC, SEC)
T2 chain: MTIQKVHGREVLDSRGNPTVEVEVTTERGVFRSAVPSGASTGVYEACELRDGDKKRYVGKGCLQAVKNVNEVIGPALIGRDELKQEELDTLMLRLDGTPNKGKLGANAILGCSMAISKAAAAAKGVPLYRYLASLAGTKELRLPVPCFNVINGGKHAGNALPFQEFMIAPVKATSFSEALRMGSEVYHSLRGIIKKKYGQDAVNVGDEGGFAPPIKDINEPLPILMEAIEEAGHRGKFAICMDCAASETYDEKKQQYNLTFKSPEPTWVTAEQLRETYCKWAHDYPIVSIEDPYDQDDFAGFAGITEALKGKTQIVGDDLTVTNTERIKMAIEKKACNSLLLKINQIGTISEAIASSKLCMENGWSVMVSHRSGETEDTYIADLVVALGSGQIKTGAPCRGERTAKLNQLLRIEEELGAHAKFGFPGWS
Briefly: ELISA; heterologous sandwich ELISA: His-tagged Nb11 coated at 1 μg/mL, TevENO 1 μg/mL in PBS, HA-tagged detection Nb at 1 μg/mL. The conditions noted are these: both partners purified.

`O=C(O)[C@@H](CO)OP(=O)(O)O` [2-PGA, 2-phosphoglycerate]: the Km in assay [1] amounted to 52 µM.

For “recombinant Trypanosoma evansi enolase (TevENO), His-tagged (enzyme)”, the stoichiometry N in assay [2] came to 2.

B1: NbR1-10 (VHH)
VHH: QVQLQESGGGLVQPGGSLRLSCAAPGSIFSIFSGNIMGWYRQAPGKQRDFVASISSGGATNYADSVKGRFTISRDNAKNTVYLQMNNLKPEDTAVYYCNTVGGVHTNSWGQGTQVTVSS
notes: alpaca Nanobody; source: E. coli WK6, periplasmic extract, purified (His-Select Nickel resin, SEC)
In the case of B1, in assay [3], the binding result is “binds”.

The values above are taken from article PMC7565430, “An Unbiased Immunization Strategy Results in the Identification of Enolase as a Potential Marker for Nanobody-Based Detection of Trypanosoma evansi” (Vaccines, 2020).
